Data: paper PMC7864079, “Molecular basis for histone H3 “K4me3-K9me3/2” methylation pattern readout by Spindlin1” (The Journal of Biological Chemistry, 2021)

Molecular target: double Tudor domains of JMJD2A
Assay: ITC; reader domains (BPTF, RAG2, ZCWPW1, SGF29, JMJD2A) titrated with H3 peptides; 25°C; One Set of Binding Sites model

Kd [nM] | Substance
900 | H3_(1–20) “K4me3-K9me3” peptide (from UniProt P68431 2-21)
600 | H3_(1–20) K4me3 peptide (from UniProt P68431 2-21)
